From article PMC3765780, “Pyocyanin-induced mucin production is associated with redox modification of FOXA2”

Target: T1, FOXA2 (immunoprecipitated from control NCI-H292 cells) (Homo sapiens? (NCI-H292 cells), UniProt Q9Y261 1-457)
T1 sequence: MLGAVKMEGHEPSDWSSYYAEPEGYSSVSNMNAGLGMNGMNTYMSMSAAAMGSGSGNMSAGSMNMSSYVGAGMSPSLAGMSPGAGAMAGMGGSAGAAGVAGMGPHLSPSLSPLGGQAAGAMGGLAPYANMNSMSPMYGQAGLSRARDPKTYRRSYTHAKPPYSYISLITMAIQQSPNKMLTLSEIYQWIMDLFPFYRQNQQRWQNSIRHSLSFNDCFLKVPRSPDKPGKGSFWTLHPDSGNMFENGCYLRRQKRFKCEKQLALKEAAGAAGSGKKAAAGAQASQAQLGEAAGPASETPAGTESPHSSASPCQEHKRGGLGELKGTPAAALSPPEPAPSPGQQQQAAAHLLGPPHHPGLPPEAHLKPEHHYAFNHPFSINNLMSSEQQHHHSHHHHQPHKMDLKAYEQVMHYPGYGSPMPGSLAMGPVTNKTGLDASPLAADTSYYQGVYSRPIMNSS
Test: EMSA; untreated control cells; inhibited by 20-fold unlabeled probe and by anti-FOXA2 antibody; 10 mM Hepes pH 7.9, 1 mM EDTA, 5 mM MgCl2, 10% glycerol, DTT (printed '0.5 m MDTT', probably 0.5 mM), 1 mg/ml BSA, 1 ug poly(dI-dC); 2.5 ug FOXA2; 20 min, room
Details: protein: native; blunt

B1: MUC5B promoter FOXA2 site probe (dsDNA)
DNA 1: CCTCCCCGAGAGCAAACACACGTGGCTGGA
DNA 2: TCCAGCCACGTGTGTTTGCTCTCGGGGAGG
binding result: binds
